Test results: PMC11587947

Key:
Assay in all cases: turbidimetry of self-assembly
[1] = molecular target: HIV-1 capsid protein CA mutant Q192A (HIV-1 (strain BH10))
[2] = molecular target: HIV-1 capsid protein CA mutant Q63A (HIV-1 (strain BH10))
[3] = molecular target: HIV-1 capsid protein CA mutant E45A (HIV-1 (strain BH10))
[4] = molecular target: HIV-1 capsid protein CA mutant E180A (HIV-1 (strain BH10))
[5] = molecular target: HIV-1 capsid protein CA mutant V165A (HIV-1 (strain BH10))
[6] = molecular target: HIV-1 capsid protein CA mutant S178A (HIV-1 (strain BH10))
[7] = molecular target: HIV-1 capsid protein CA mutant P38A (HIV-1 (strain BH10))

HIV-1 capsid protein CA mutant Q192A (natural protein)
growth rate constant kg relative to wt [1]: 2.7 fold of wt

HIV-1 capsid protein CA mutant Q63A (natural protein)
growth rate constant kg relative to wt [2]: 0.6 fold of wt

HIV-1 capsid protein CA mutant E45A (natural protein)
growth rate constant kg relative to wt [3]: 11.5 fold of wt

HIV-1 capsid protein CA mutant E180A (natural protein)
growth rate constant kg relative to wt [4]: 0.8 fold of wt

HIV-1 capsid protein CA mutant V165A (natural protein)
growth rate constant kg relative to wt [5]: 28 fold of wt | nucleation rate constant kn relative to wt [5]: > 100 fold of wt

HIV-1 capsid protein CA mutant S178A (natural protein)
growth rate constant kg relative to wt [6]: 5.6 fold of wt

HIV-1 capsid protein CA mutant P38A (natural protein)
growth rate constant kg relative to wt [7]: 18.5 fold of wt
